Data on two molecules can be found in article PMC8881611, “A mechanism of origin licensing control through autoinhibition of S. cerevisiae ORC·DNA·Cdc6” (Nature Communications, 2022).

B1: S. cerevisiae Cdc6 (ScCdc6), full length (natural protein, UniProt P09119 1-513, looked up)
chain: MSAIPITPTKRIRRNLFDDAPATPPRPLKRKKLQFTDVTPESSPEKLQFGSQSIFLRTKALLQKSSELVNLNSSDGALPARTAEYEQVMNFLAKAISEHRSDSLYITGPPGTGKTAQLDMIIRQKFQSLPLSLSTPRSKDVLRHTNPNLQNLSWFELPDGRLESVAVTSINCISLGEPSSIFQKIFDSFQDLNGPTLQIKNMQHLQKFLEPYHKKTTFVVVLDEMDRLLHANTSETQSVRTILELFLLAKLPTVSFVLIGMANSLDMKDRFLSRLNLDRGLLPQTIVFQPYTAEQMYEIVIQKMSSLPTIIFQPMAIKFAAKKCAGNTGDLRKLFDVLRGSIEIYELEKRFLLSPTRGSLNSAQVPLTPTTSPVKKSYPEPQGKIGLNYIAKVFSKFVNNNSTRTRIAKLNIQQKLILCTIIQSLKLNSDATIDESFDHYIKAITKTDTLAPLQRNEFLEICTILETCGLVSIKKTKCKGKTKRFVDKIDVDLDMREFYDEMTKISILKPFLH
notes: Cdc6, S. cerevisiae, wild type; also called co-loader; source: High5 insect cells, baculovirus, purified as ScORC (HisTrap, amylose, TEV cleavage, HisTrap, Superdex 200); not shown: His6, N-terminal, cleaved; MBP, N-terminal, cleaved

Assay in all cases: cryo-EM structure; ScORC (2.5 uM), 84 bp ARS1 DNA (3 uM) and ScCdc6 (6.8 uM) reconstituted with 1 mM ATP, purified on Superose 6 in 25 mM HEPES-KOH pH 7.6, 250 mM potassium acetate, 10 mM magnesium acetate, 1 mM DTT, 0.2 mM ATP; not cross-linked; masked 3D classification
What all share (settings): both partners purified

One experiment addresses T1, S. cerevisiae Orc1 (S. cerevisiae, UniProt P54784 1-914).
T1 construct: Orc1, S. cerevisiae, wild type; Stood in the assays as a subunit of ScORC·DNA(·Cdc6); also called ScOrc1; source: High5 insect cells, co-expressed and purified as a subunit of ScORC; not shown: His6, N-terminal, cleaved
T1 sequence (looked up): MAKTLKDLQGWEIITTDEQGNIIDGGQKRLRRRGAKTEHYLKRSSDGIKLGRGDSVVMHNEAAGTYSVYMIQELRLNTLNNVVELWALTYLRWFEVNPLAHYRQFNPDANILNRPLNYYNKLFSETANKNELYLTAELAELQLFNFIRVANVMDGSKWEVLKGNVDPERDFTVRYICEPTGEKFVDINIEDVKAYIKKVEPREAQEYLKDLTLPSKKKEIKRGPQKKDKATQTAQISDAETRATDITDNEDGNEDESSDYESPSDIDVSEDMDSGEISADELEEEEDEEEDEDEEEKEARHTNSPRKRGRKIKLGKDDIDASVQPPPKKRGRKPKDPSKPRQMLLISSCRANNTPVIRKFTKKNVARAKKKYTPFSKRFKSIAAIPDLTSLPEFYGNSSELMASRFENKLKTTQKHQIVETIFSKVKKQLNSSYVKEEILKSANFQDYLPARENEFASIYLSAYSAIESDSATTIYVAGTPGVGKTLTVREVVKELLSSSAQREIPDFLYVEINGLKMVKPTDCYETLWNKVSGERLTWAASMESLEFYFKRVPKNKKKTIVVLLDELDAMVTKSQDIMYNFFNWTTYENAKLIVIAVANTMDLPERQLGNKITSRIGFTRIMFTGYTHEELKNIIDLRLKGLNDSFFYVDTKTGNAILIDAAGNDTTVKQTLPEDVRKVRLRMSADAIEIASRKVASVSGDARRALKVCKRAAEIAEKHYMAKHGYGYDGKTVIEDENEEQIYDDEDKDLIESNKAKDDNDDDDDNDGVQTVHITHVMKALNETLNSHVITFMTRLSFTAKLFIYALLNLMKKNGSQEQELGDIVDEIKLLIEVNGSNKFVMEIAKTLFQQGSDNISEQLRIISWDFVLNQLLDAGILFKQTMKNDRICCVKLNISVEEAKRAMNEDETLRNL

In experiment [1] the target is T2, S. cerevisiae Origin Recognition Complex (ScORC), full-length Orc1-6 (S. cerevisiae, UniProt P54784 1-914; P32833 1-620; P54790 1-616; P54791 1-529; P50874 1-479; P38826 …, mixture of unphosphorylated and phosphorylated Orc6, including established CDK sites (sites not given)).
T2 construct: Orc1, S. cerevisiae, wild type; Orc2, S. cerevisiae, wild type; Orc3, S. cerevisiae, wild type; Orc4, S. cerevisiae, wild type; Orc5, S. cerevisiae, wild type; Orc6, S. cerevisiae, wild type; also called initiator; source: High5 insect cells co-infected with baculoviruses, purified (HisTrap, amylose, TEV cleavage, HisTrap, Sephacryl S-400); not shown: His6, N-terminal, cleaved; MBP, N-terminal, …

The target of experiment [2] is B1.

T2 sequence (P32833 whole entry, chain 2 of 4): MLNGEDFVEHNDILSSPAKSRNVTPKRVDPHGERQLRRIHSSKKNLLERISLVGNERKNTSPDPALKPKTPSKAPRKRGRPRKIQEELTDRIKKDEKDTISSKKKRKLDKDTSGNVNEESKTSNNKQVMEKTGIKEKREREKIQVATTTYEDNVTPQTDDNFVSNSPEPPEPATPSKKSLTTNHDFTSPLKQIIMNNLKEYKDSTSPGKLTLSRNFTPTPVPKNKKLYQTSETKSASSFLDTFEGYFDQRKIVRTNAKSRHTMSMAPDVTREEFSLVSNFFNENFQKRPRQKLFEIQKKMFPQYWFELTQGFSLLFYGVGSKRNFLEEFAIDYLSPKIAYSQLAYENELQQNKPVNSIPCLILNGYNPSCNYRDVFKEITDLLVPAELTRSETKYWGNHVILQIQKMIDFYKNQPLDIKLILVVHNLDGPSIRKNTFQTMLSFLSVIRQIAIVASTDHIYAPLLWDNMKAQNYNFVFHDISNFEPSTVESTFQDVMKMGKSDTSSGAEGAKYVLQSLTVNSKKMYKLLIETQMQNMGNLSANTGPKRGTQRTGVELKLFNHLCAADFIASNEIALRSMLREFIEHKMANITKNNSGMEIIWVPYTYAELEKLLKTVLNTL
T2 sequence (P54790 whole entry, chain 3 of 4): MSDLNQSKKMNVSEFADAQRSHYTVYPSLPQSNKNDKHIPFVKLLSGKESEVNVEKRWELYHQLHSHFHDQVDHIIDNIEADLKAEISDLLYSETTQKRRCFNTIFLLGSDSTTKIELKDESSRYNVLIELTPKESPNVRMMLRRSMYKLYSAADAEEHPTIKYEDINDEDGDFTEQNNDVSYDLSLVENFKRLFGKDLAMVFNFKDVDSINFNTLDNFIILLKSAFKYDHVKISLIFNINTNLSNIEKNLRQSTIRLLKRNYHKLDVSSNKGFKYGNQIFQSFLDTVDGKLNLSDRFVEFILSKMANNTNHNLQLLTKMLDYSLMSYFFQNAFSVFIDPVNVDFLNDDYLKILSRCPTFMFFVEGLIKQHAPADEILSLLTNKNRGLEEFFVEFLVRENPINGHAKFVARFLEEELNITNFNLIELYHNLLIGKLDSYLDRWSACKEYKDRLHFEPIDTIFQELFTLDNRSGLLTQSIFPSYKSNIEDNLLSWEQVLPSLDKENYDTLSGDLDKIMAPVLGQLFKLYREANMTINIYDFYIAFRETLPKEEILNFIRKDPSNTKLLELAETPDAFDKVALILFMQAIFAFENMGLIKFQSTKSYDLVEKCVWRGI
T2 sequence (P54791 whole entry, chain 4 of 4): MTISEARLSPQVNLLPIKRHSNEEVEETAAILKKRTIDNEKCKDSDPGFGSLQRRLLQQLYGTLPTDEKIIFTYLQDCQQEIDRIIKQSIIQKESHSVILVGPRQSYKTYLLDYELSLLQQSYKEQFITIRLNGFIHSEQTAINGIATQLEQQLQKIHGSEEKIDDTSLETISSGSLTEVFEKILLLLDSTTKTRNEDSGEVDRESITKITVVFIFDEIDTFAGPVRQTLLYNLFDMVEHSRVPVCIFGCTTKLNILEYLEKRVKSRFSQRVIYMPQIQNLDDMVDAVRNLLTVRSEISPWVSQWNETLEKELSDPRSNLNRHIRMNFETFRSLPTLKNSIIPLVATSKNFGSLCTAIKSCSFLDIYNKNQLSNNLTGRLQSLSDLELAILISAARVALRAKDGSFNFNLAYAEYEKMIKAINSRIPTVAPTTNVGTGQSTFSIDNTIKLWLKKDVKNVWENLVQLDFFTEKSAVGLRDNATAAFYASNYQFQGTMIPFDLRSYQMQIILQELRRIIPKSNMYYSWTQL
T2 sequence (P50874 whole entry, chain 5 of 4): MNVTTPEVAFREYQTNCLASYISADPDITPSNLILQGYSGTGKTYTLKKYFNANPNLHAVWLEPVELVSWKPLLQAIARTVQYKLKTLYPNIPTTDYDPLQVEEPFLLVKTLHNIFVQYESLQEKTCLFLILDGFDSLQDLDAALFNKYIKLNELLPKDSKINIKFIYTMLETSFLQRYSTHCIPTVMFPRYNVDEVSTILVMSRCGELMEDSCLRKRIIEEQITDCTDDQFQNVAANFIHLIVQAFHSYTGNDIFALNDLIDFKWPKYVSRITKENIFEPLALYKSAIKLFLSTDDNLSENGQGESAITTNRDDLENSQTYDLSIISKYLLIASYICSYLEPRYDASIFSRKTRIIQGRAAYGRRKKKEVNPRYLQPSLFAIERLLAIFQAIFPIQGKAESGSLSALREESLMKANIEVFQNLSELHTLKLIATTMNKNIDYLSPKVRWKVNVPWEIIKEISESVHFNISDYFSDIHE

In the case of B1, the binding result (in the experiment with S. cerevisiae Orc1; in experiment [1]) was “binds” in each case.

B2: S. cerevisiae Orc6 (natural protein, UniProt P38826 1-435, looked up)
chain: MSMQQVQHCVAEVLRLDPQEKPDWSSGYLKKLTNATSILYNTSLNKVMLKQDEEVARCHICAYIASQKMNEKHMPDLCYYIDSIPLEPKKAKHLMNLFRQSLSNSSPMKQFAWTPSPKKNKRSPVKNGGRFTSSDPKELRNQLFGTPTKVRKSQNNDSFVIPELPPMQTNESPSITRRKLAFEEDEDEDEEEPGNDGLSLKSHSNKSITGTRNVDSDEYENHESDPTSEEEPLGVQESRSGRTKQNKAVGKPQSELKTAKALRKRGRIPNSLLVKKYCKMTTEEIIRLCNDFELPREVAYKIVDEYNINASRLVCPWQLVCGLVLNCTFIVFNERRRKDPRIDHFIVSKMCSLMLTSKVDDVIECVKLVKELIIGEKWFRDLQIRYDDFDGIRYDEIIFRKLGSMLQTTNILVTDDQYNIWKKRIEMDLALTEPL
modifications: mixture of unphosphorylated and phosphorylated Orc6, including established CDK sites (sites not given)
notes: Orc6, S. cerevisiae, wild type; Stood in the assays as a subunit of ScORC·DNA(·Cdc6); also called ScOrc6; holds Orc6-CBN (N-terminal cyclin box fold) and Orc6-CBC (C-terminal cyclin box fold); source: High5 insect cells, co-expressed and purified as a subunit of ScORC
Regarding B2, the binding result in experiment [2] is “binds”.
